This note sets out measurements from the DeepSol protein solubility set.

This data set can be described thus: soluble on expression in E. coli; label from the status in PepcDB or PDB records.
For the sequence “MEEQREALRKIIKTLAVKNEEIQSFIYSLKQMLLNVEANSAKVQEDLEAEFQSLFSLLEELKEGMLMKIKQDRASRTYELQNQLAACTRALESSEELLETANQTLQAMDSEDFPQAAKQIKDGVTMAPAFRLSLKAKVSDNMSHLMVDFAQERQMLQALKFLPVPSAPVIDLAESLVADNCVTLVWRMPDEDSKIDHYVLEYRRTNFEGPPRLKEDQPWMVIEGIRQTEYTLTGLKFDMKYMNFRVKACNKAVAGEFSEPVTLETPAFMFRLDASTSHQNLRVDDLSVEWDAMGGKVQDIKAREKDGKGRTASPINSPARGTPSPKRMPSGRGGRDRFTAESYTVLGDTLIDGGEHYWEVRYEPDSKAFGVGVAYRSLGRFEQLGKTAASWCLHVNNWLQVSFTAKHANKVKVLDAPVPDCLGVHCDFHQGLLSFYNARTKQVLHTFKTRFTQPLLPAFTVWCGSFQVTTGLQVPSAVRCLQKRGSATSSSNTSLT”, the “soluble on expression in E. coli” value is reported as “soluble”.

For the sequence “MEESDVLISLIEILKIHQKVIDYDKFKDPEDYTPAIRSLATLELMFEYLIKESNTIFENAAVIVYTIVAKHPFFNGNKRTGYEAMNFIIEDGGYGFTSTDEEMIEFIIRVATTENEMSIEEIKEWIIRHTEKILLEHHHHHH”, the “soluble on expression in E. coli” value was “soluble”.

For the sequence “MEFDKGQTLGNFIDRIRLNGYNTECVFNQSICQDIKNHYKQQCCAMCGVRGNSENTQIEVDHKDGRKDDSRVSDLSTQAFDDFQALCKACNDKKRQICKKCKETGYRFDARKIPGNHYSFYEGEAEYDGCVGCYQYDPIQYRKTCNDRIYNEGYQKGYSDGYQIGYHQKTTL”, the “soluble on expression in E. coli” value was “not soluble”.

Regarding “MEFSMNATVEQLAPVEQQATTDWVVAALYQFKEVADAADLQQRLLDLVKTINLCGTLIVASEGINGTVAGDRHAIDTIREFLLNEGFHAMEYKESHSAEKPFRKMKIKLKQEIVTLGVEVKPRDLVGHYLDPKEWNELISRDDVILVDTRNDYEYKAGTFKGAIDPKTETFREFPDYVKQNLEQHKDKKIAMFCTGGIRCEKSTSLLLQEGFNEVYHLKGGILKYLEETPAEESLWEGECFVFDGRTAVTHGVEEGQNVKCHACGWPLTPEEVALPSYEHGVSCVYCIEKTTEKQKEGFRMRQSQIAAAKRKRLLEHHHHHH”, the “soluble on expression in E. coli” value is listed as “soluble”.

As to “MEFTLTREKQMIKEMVRDFAEKEIAPKAVYYDKTAEFPYETFQKMGELGLLGIPFPEEYGGSGGDTVSYALAVEEIGRACGGTGLSYAATISLGASPIYYFGTEEQKQKYLVPMASGKTLGAFGLTEPNAGSDAGGTQTKAILDGDEYVISGEKCWITNAEYANTIIVTAVNGIEENGRKRISAFIVPTTSEGLTISSPYDKMGVRASNTCEIVLDGVRVPKENILGDVNKGFKQFLYTLDGGRISIAVLAVGIAQSAFERALQYAKERQQFGKAISNFQAIQFKLADMATEVELARNLVHKAAWLKDNDKPFGKEAAMAKLFASEAASRIANQAVQIHGGYGYMREYEVERHIRDAKLLEIGEGTSEIQRLVIARHLGCR”, the “soluble on expression in E. coli” value is listed as “not soluble”.

Regarding “MEFYGPITGEKFAFLLFRDNGEVIEFNHWSQVKEYKSELKISKSSIQIFLRNGCVYPPYTIYSNVLMLPIGTKLTIDIKNDIFKWENNFCFLDRHSKQDSKPSTSKLKTLIANSFAHLKKEVKPIYMMQSAGKDSTAMLLGLHEQGIQNVHCVTYEANFRDTESDAAKKIAESLGFEHTILFPNYEAEFDALLEYQENAVSITGDFSMLPYIAANKSVFKSDSLVIDGLGNDLYMGYVSNKLERSIMKCSLGNFSYLEPSKFTSNEVINYAISSIFMKPYERLFPGTRLSSSEIENFTDNKFIDDDAIYFSKQYNNLDKDDFRAAIRARFCDSTMFQMKAELTTNSFGNEVYFPFSNKELVDYYFNLPIEERYDKANSCNKTLLRSMLNEYVEVDDFFKVKSGFRYNMPEFITINKEKIKKEIIECDLLEQDYSNRFFAKHLDVQKVNYTSACKAYILLVFASWRNRNKLAVVDGHVADKFDWY”, the “soluble on expression in E. coli” value was “not soluble”.

On to “MEGGGAKDGSAAAAQTRGSGDDGSHKPLPPCCLKAKAAAAESEAKCHATVVSGWFTEPRSHSGKTSKVQYFNNPMWPGEAHSLKVENILYQGKSPYQEILVFESSTYGNVLVLDGIVQLTEKDECAYQEMVTHLPLCSIPSPKSVLVVGGGDGGVLREIARHASVENIDICEIDQLVIDVCKDFFPQLSVGFKDPRVQLHVGDAVDFLRNAPEGKYDAIIVDSSDPIGPAQELVEKPFFQTIARALKPGGVLCNQAESMWLHTHLIQDMLSICRETFKGAVHYAWTSVPTYPSGVIGFLLCAKEGPAVNFLSPVNPIEKLEGAMEAGREIRFYNSEVHRAAFVLPTFVRRELESHNTCAEKDKSETKPVAKPKKMKIMPNSAIPTAS”, for which the “soluble on expression in E. coli” value is recorded as “not soluble”.

As for “MEGLFNAIKDTVTAAINNDGAKLGTSIVSIVENGVGLLGKLFGF”, the “soluble on expression in E. coli” value was “soluble”.

Take “MEGLTPEMQREAEALRREWETNPRWKGVRRDYRPEDVVRLRPSVMVEYTLAKRGAEKLWKLLHERPYVHTFGAYTGAMAVEMVRAGLEAIYLSGWQVAADANLAWQTYPDQSLYPYNSVPQIVKRINNALMRADQVERIEGRVTRDWYVPIVADAEAGFGGALNVFELTKAMIEAGAAGIHYEDQLASEKKCGHLGGKVLVPTGQHIRTLQAARLAADVMGVPTVIIARTDAEAATLITSDIDERDKPFILPDERTPEGFYRFKNGIEAGIARALAYAPYADVIWMETSKPDLEEARKFAEAVKKEFPDKLLAYNLSPSFNWKKFLDDETIAKFNRELGEMGYKFQFITLAGWHALNYYIWELAKGYKERGMPAFVELQQKEFAAQKEGFTAVKHQREVGAGYFDEVVLALTQGQASTLALKGSTEEAQFNEPVH”: the “soluble on expression in E. coli” value is reported as “soluble”.

Turning to “MEGVELKEEWQDEDFPIPLPEDDSIEADILAITGPEDQPGSLEVNGNKVRKKLMAPDISLTLDPSDGSVLSDDLDESGEIDLDGLDTPSENSNEFEWEDDLPKPKTTEVIRKGSITEYTAAEEKEDGRRWRMFRIGEQDHRVDMKAIEPYKKVISHGGYYGDGLNAIVVFAVCFMPESSQPNYRYLMDNLFKYVIGTLELLVAENYMIVYLNGATTRRKMPSLGWLRKCYQQIDRRLRKNLKSLIIVHPSWFIRTLLAVTRPFISSKFSQKIRYVFNLAELAELVPMEYVGIPECIKQVDQELNGKQDEPKNEQLEHHHHHH”, the “soluble on expression in E. coli” value is on record as “soluble”.

With “MEIAKEIKDFLTTRRARITPDQVGLPTGGRRRVAGLRREVVAMLAGVSAEYYVQIERGGVSGVSDEVLYAIATALRLDDEETKHLFTLARAASTRPRRRIAPRARVEVPEPVQALVDAMITAPAVVQNGHLDIVAVNALGRALYADVFDRSDGVPNLARFIFLDRRAGETFPDWNHAADDAVAILRSEAARSPYSAAVTGLVGELATRSDEFRTRWATHDIKAHRRGTKRFHHPVVGDLTLRFEALEVASAAGLTLFGFTAEPGSPSEESLRLLSSWAASDRPEHQHS”, the “soluble on expression in E. coli” value is recorded as “not soluble”.

“MEIFMNYKKSNGLNYILISDTALFQGCSPVETEKLLSGMQFFTKAYKKGVPVYHAGTPVSDIGIVLHGVVQIENNDLWGNKNIISLAQAGEVFAEAYACIPGEPMMVDVIALEDCEILFLNVPRLFQLASSGKGEYSVLIRNLTMISARKNLLLSRRILHTSSKKIRGRLLSYLSHQAELQGSRYIDIPLNRQQLADYLSLDRSALSKELAKMKQDGLLDYHKNSFVLKNV”: the “soluble on expression in E. coli” value is “not soluble”.

Turning to “MEITWEKPKSSSHHRNPSFSSTLLDQIYRSIDDSSPPPPLESIKKKKHHHQQRNASLHEDREISPIYHRRSIAADFERSRRKTDFLRHSNSSSSDSSGFSSSESDSFHGRSKSSASPPSSSRQQPKPIRTSSVDHSSAVQKPKELGGFLRTKSKALKIYSDLKKVKQPISPGGRLATFLNSLFTNAATNPKKHKKTTTVAVVEEPHSSSTCSSASSFSRSCLSKTPSSSGKSKRSVRFCPVNVILDEDSSFTMPYAYNNERLYDNNEAKRVEEHRRVIQAAKDLLRTYHNKNKVTTTNINNVEEDDEDDAASCASSDLFELENLSAIGIERYREELPVYETTRLDNMNRVIATGLIV”, the “soluble on expression in E. coli” value is reported as “soluble”.

With “MEKDNICYKTYVEILERELVPAMGCTEPIALAYCSAKARSVLGVLPDKVLVEVSGNIVKNVKSVIVPNSGGRRGIEAAAAVGILAGREDLELEVLSKVTDEDIAGLGAYMEKVEITVAPLDTPYLLDMAVTAKKDGSRARVRIAQEHTNIIEIEKDGKILFEKQAGEEEDCDAPDYSLLTIEKIYDFADTADLEDVKAVLDRQIAYNTAIAEEGLRGDYGANIGRVLMEEYGDRIENRAKAMAAAGSDARMNGCDLPVIINSGSGNQGMTASLPVIEYAKELKCSREKLYRALLLSNLVTLHQKTGIGRLSAYCGAVSAGAGAGAGIAYLEGGDLKVVAHTLVNALAITSGIVCDGAKASCAAKIAVAVDTGILGYKMYKKGQQFYGGDGLVAKGVENTIRNIGRLGKEGMKETDKEIIRIMTE”, the “soluble on expression in E. coli” value was “not soluble”.

As to “MEKHEEENGLCKAESVDGSLDVWSCQNSDSSSADHLVVMVHGILGSTDDWKFGAEQFVKKMPDKVFVHCSEKNVSALTLDGVDVMGERLAAEVLDIIQRKPNICKISFVAHSLGGLAARYAIGKLYKPANQEDVKDSVADSSQETPKGTICGLEAMNFITVATPHLGSMGNKQVPFLFGFSSIEKVAGLIIHWIFKRTGRHLFLKDEEEGKPPLLRRMVEDTDDCHFISALRAFKRRVAYSNVGHDHVVGWKTASIRRDSELPKWEDSLNEKYPHIVYEELCKACDMEDIPEGENHSDDIEEEMIKGLSSVSWEKVDVSFHSSRQRFAAHSVIQVKNEDMHIEGADVIEHIIDHFHA”, the “soluble on expression in E. coli” value is given as “soluble”.

Consider “MEKIMPEEEYSEFKELILQKELHVVYALSHVCGQDRTLLASILLRIFLHEKLESLLLCTLNDREISMEDEATTLFRATTLASTLMEQYMKATATQFVHHALKDSILKIMESKQSCELSPSKLEKNEDVNTNLTHLLNILSELVEKIFMASEILPPTLRYIYGCLQKSVQHKWPTNTTMRTRVVSGFVFLRLICPAILNPRMFNIISDSPSPIAARTLILVAKSVQNLANLVEFGAKEPYMEGVNPFIKSNKHRMIMFLDELGNVPELPDTTEHSRTDLSRDLAALHEICVAHSDELRTLSNERGAQQHVLKKLLAITELLQQKQNQYTKTNDVR”, for which the “soluble on expression in E. coli” value is given as “soluble”.

Turning to “MEKNFKVAALYCFADLKHYRQLQKPLLDLCQAKDIKGTLLLAQEGINGTVAGSCAAIETLVDFITAEPAFQMPEIKYSWASKMPFHRMKVRLKKEIVTMGVDGVNPLKAVGTYVDPKDWNALIQDEETLLIDTRNDYEYAIGSFQGAVDPRIKTFREFPAWVLKHEADLKKKKKIAMFCTGGIRCEKSTAYVRELGYEQVYHLKGGILKYLETIPKEDSLWWGECFVFDERVSVKHGLEECGRELCRACRSPLNTESKLSPHYEEGVSCDACYNTRSEDDRERFRERHRQFQLSKLRAMHSHQELEHHHHHH”, the “soluble on expression in E. coli” value is “not soluble”.
